According to PMC10279719 (Nature Communications, 2023):
Non-standard residues stand in square brackets, D forms with d. pY = N[C@@H](Cc1ccc(OP(=O)(O)O)cc1)C(=O)O

B8: full length CrkII, monomer (CrkII^FL monomer) (natural protein, human, UniProt P46108-1 1-304, looked up)
chain: MAGNFDSEERSSWYWGRLSRQEAVALLQGQRHGVFLVRDSSTSPGDYVLSVSENSRVSHYIINSSGPRPPVPPSPAQPPPGVSPSRLRIGDQEFDSLPALLEFYKIHYLDTTTLIEPVSRSRQGSGVILRQEEAEYVRALFDFNGNDEEDLPFKKGDILRIRDKPEEQWWNAEDSEGKRGMIPVPYVEKYRPASASVSALIGGNQEGSHPQPLGGPEPGPYAQPSVNTPLPNLQNGPIYARVIQKRVPNAYDKTALALEVGELVKVTKINVSGQWEGECNGKRGHFPFTHVRLLDQQNPDEDFS
modifications: biotin (EZ-Link NHS-PEG4-Biotin, 1:1 molar ratio) where it was immobilised (a1)
notes: full length human CrkII, printed as UniProt P46108-1, residues 1-330
B9: full length CrkII, dimer (CrkII^FL dimer) (natural protein, human, UniProt P46108-1 1-304, looked up)
chain: MAGNFDSEERSSWYWGRLSRQEAVALLQGQRHGVFLVRDSSTSPGDYVLSVSENSRVSHYIINSSGPRPPVPPSPAQPPPGVSPSRLRIGDQEFDSLPALLEFYKIHYLDTTTLIEPVSRSRQGSGVILRQEEAEYVRALFDFNGNDEEDLPFKKGDILRIRDKPEEQWWNAEDSEGKRGMIPVPYVEKYRPASASVSALIGGNQEGSHPQPLGGPEPGPYAQPSVNTPLPNLQNGPIYARVIQKRVPNAYDKTALALEVGELVKVTKINVSGQWEGECNGKRGHFPFTHVRLLDQQNPDEDFS
modifications: biotin (EZ-Link NHS-PEG4-Biotin, 1:1 molar ratio) where it was immobilised (a1)
notes: as for B8

How the values were obtained:
[1] = biological target: B8; assay: SPR; biotinylated adapter proteins captured with a biotin CAPture kit, pY peptides as analytes; Biacore 8K+, 20 °C, HBS-TP (20 mM HEPES pH 7.4, 150 mM NaCl, 1 mM TCEP, 0.005% Tween-P20) with 2% DMSO; 1 M NaCl regeneration; steady state, 1:1 model; conditions: both partners purified
[2] = biological target: B9; assay: as above; conditions: both partners purified
[3] = biological target: T1, CrkII SH2 domain (CrkII^SH2, residues 6-120) (human, UniProt P46108-1 6-120, biotin (EZ-Link NHS-PEG4-Biotin, 1:1 molar ratio) where it was immobilised (a1)); assay: as above; conditions: both partners purified
T1 construct: human CrkII SH2 domain, UniProt P46108-1, residues 6-120; The His tag is TEV-cleavable and was cleaved 'when required'

[4] = biological target: the molecule itself; assay: SEC; S75 16/600 profile of the purified CrkII constructs, with SDS-PAGE of fractions
[5] = biological target: the molecule itself; assay: SEC; single purified proteins on Superdex 200 (purification and re-runs), 20 mM HEPES pH 7.5–8.5, 150 mM NaCl, 1 mM TCEP; oligomeric state
[6] = biological target: T2, CrkII N-terminal SH3 domain (CrkII^NSH3, residues 134-191) (human, UniProt P46108-1 134-191); assay: SPR; CrkII NSH3 amine coupled to a CM5 chip, PRM peptides as analytes (100 µM-100 nM); Biacore S200, 20 °C, HBS-TP; steady state, 1:1 model; conditions: both partners purified
T2 construct: human CrkII NSH3 domain, UniProt P46108-1, residues 134-191; Amine coupled to a CM5 chip in a2; analyte in a4; in the syringe in ITC

[7] = biological target: T3, PEAK2^IDR1 (residues 802-1406), from insect cells, phosphorylated by Src (human, UniProt Q86YV5 802-1406, phosphorylated with Src kinase, sites not stated; phosphorylation of the tandem site 14-3-3 motif (RAASSP) found by proteomic analysis; biotin (EZ-Link NHS-PEG4-Biotin, 1:1 molar ratio)); assay: SPR; biotinylated PEAK proteins (with or without Src phosphorylation) captured with a biotin CAPture kit; Grb2 FL, Grb2 SH2, CrkII SH2, CrkII FL monomer or dimer as analytes; Biacore 8K+, 20 °C, HBS-TP with NaCl raised to 500 mM; 1 M NaCl regeneration; steady state; conditions: both partners purified
T3 construct: human PEAK2 (SgK223, PRAG1), UniProt Q86YV5, residues 802-1406; also called PEAK2-IDR1 (+ Src phosphorylation); source: Sf21 insect cells, purified; phosphorylated in vitro with recombinant Src kinase domain
T3 sequence (looked up): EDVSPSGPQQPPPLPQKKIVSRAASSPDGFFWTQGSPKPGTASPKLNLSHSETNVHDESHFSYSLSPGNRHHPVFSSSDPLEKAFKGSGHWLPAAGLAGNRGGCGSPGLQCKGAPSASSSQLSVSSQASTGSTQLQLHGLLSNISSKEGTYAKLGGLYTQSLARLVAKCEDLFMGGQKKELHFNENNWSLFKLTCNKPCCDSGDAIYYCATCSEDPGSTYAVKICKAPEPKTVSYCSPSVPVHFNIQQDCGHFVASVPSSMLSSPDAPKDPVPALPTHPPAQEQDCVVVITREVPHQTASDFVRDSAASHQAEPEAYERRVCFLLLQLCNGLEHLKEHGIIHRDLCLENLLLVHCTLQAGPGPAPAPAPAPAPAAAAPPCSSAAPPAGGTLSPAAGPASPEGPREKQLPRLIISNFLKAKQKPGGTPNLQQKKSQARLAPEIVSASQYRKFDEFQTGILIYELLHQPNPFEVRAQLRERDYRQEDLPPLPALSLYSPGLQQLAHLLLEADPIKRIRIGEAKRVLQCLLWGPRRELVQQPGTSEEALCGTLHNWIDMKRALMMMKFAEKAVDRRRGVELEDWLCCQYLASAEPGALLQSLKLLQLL

[8] = biological target: T4, PEAK1^IDR1 (residues 1082-1746), from insect cells, phosphorylated by Src (human, UniProt Q9H792 1082-1746, phosphotyrosine at Y1107 (by Src in vitro, shown by MS/MS); other Src sites not stated; biotin (EZ-Link NHS-PEG4-Biotin, 1:1 molar ratio)); assay: as above; conditions: both partners purified
T4 construct: human PEAK1, UniProt Q9H792, residues 1082-1746; also called PEAK1-IDR1 (+ Src phosphorylation); source: Sf21 insect cells, purified; phosphorylated in vitro with recombinant Src kinase domain
T4 sequence (looked up): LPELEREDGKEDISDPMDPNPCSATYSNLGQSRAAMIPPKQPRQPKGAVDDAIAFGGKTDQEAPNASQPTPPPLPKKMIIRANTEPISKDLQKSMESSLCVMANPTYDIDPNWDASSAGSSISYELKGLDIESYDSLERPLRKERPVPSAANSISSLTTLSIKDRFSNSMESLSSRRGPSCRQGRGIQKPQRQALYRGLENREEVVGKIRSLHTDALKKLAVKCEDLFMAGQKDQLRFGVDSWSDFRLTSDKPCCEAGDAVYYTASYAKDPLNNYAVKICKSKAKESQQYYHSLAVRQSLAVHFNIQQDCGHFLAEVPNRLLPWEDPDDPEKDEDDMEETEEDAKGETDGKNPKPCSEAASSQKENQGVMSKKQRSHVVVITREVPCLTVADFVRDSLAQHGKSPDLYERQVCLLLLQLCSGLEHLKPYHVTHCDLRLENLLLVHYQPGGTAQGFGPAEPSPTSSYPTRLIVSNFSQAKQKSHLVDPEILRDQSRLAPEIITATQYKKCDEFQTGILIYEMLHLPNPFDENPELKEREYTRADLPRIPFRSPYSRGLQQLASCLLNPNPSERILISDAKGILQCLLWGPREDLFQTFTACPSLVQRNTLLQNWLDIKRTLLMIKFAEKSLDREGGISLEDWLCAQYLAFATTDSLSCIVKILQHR

B1: PEAK SH2-pY consensus peptide (Ac-T(pY)SNLGQ-NH2) (peptide)
peptide: Ac-T[pY]SNLGQ-NH2
notes: also called consensus pY peptide; SH2-pY peptide; source: synthetic peptide, bought: Mimotopes (95% purity)
[1]
  Kd: 14.5 µM
[2]
  Kd: 12.7 µM
[3]
  Kd: 8.8 µM

B2: CrkII SH2-NSH3 construct lacking the CSH3 domain (CrkIIΔCSH3) (domain or fragment, human, UniProt P46108-1 1-228, looked up)
chain: MAGNFDSEERSSWYWGRLSRQEAVALLQGQRHGVFLVRDSSTSPGDYVLSVSENSRVSHYIINSSGPRPPVPPSPAQPPPGVSPSRLRIGDQEFDSLPALLEFYKIHYLDTTTLIEPVSRSRQGSGVILRQEEAEYVRALFDFNGNDEEDLPFKKGDILRIRDKPEEQWWNAEDSEGKRGMIPVPYVEKYRPASASVSALIGGNQEGSHPQPLGGPEPGPYAQPSVNT
notes: CrkII, human, residues 1-228
[4]
  binding result: binds

B3: CrkII^∆CSH3 (SH2-NSH3, residues 1–228) (domain or fragment, human, UniProt P46108-1 1-228, looked up)
chain: MAGNFDSEERSSWYWGRLSRQEAVALLQGQRHGVFLVRDSSTSPGDYVLSVSENSRVSHYIINSSGPRPPVPPSPAQPPPGVSPSRLRIGDQEFDSLPALLEFYKIHYLDTTTLIEPVSRSRQGSGVILRQEEAEYVRALFDFNGNDEEDLPFKKGDILRIRDKPEEQWWNAEDSEGKRGMIPVPYVEKYRPASASVSALIGGNQEGSHPQPLGGPEPGPYAQPSVNT
notes: human CrkII residues 1-228, lacking the CSH3 domain
[5]
  binding result: binds

B4: PEAK1^IDR1 (human PEAK1 residues 1082–1746) (domain or fragment, UniProt Q9H792 1082-1746, looked up)
chain: LPELEREDGKEDISDPMDPNPCSATYSNLGQSRAAMIPPKQPRQPKGAVDDAIAFGGKTDQEAPNASQPTPPPLPKKMIIRANTEPISKDLQKSMESSLCVMANPTYDIDPNWDASSAGSSISYELKGLDIESYDSLERPLRKERPVPSAANSISSLTTLSIKDRFSNSMESLSSRRGPSCRQGRGIQKPQRQALYRGLENREEVVGKIRSLHTDALKKLAVKCEDLFMAGQKDQLRFGVDSWSDFRLTSDKPCCEAGDAVYYTASYAKDPLNNYAVKICKSKAKESQQYYHSLAVRQSLAVHFNIQQDCGHFLAEVPNRLLPWEDPDDPEKDEDDMEETEEDAKGETDGKNPKPCSEAASSQKENQGVMSKKQRSHVVVITREVPCLTVADFVRDSLAQHGKSPDLYERQVCLLLLQLCSGLEHLKPYHVTHCDLRLENLLLVHYQPGGTAQGFGPAEPSPTSSYPTRLIVSNFSQAKQKSHLVDPEILRDQSRLAPEIITATQYKKCDEFQTGILIYEMLHLPNPFDENPELKEREYTRADLPRIPFRSPYSRGLQQLASCLLNPNPSERILISDAKGILQCLLWGPREDLFQTFTACPSLVQRNTLLQNWLDIKRTLLMIKFAEKSLDREGGISLEDWLCAQYLAFATTDSLSCIVKILQHR
modifications: biotin (EZ-Link NHS-PEG4-Biotin) where immobilised for SPR; no phosphorylation observed at the tandem 14-3-3 motif
notes: human PEAK1 residues 1082-1746 (part of the IDR with Y1107 and the tandem site, SHED and PsK domains); the His tag is TEV-cleavable; also called PEAK1^IDR1 dimer; not shown: His tag, N-terminal, kept
[5]
  binding result: binds

B5: CrkII SH2 domain (CrkIISH2) (domain or fragment, human, UniProt P46108-1 6-120, looked up)
chain: DSEERSSWYWGRLSRQEAVALLQGQRHGVFLVRDSSTSPGDYVLSVSENSRVSHYIINSSGPRPPVPPSPAQPPPGVSPSRLRIGDQEFDSLPALLEFYKIHYLDTTTLIEPVSR
modifications: biotin (EZ-Link NHS-PEG4-Biotin) in the SPR experiment only
notes: CrkII, human, UniProt P46108-1, residues 6-120; Purifies as monomer with a proportion of dimer
[4]
  binding result: binds

B6: CrkII SH2 domain (CrkII^SH2, residues 6–120) (domain or fragment, human, UniProt P46108-1 6-120, looked up)
chain: DSEERSSWYWGRLSRQEAVALLQGQRHGVFLVRDSSTSPGDYVLSVSENSRVSHYIINSSGPRPPVPPSPAQPPPGVSPSRLRIGDQEFDSLPALLEFYKIHYLDTTTLIEPVSR
modifications: biotin (EZ-Link NHS-PEG4-Biotin) where immobilised for SPR
notes: human CrkII residues 6-120, SH2 domain
[5]
  binding result: binds

B7: PEAK1 1150-1162 proline-rich motif peptide (Ac-PTPPPLPKKMIIR-NH2) (peptide)
peptide: Ac-PTPPPLPKKMIIR-NH2
notes: source: synthetic peptide, bought: Mimotopes (95% purity)
[6]
  Kd: 0.9 µM

## B8
[7]
  Kd: 2.12 µM
[8]
  Kd: 1.5 µM

## B9
[7]
  Kd: 1.38 µM
[8]
  Kd: 1.49 µM

B10: PEAK1 1106-1121-pY1107 peptide (Ac-T(pY)SNLGQSRAAMIPPK-NH2) (peptide)
peptide: Ac-T[pY]SNLGQSRAAMIPPK-NH2
notes: human PEAK1 residues 1106-1121; source: synthetic peptide, bought: Mimotopes (95% purity)
[1]
  Kd: 3.5 µM
[2]
  Kd: 3.1 µM
[3]
  Kd: 3.2 µM

B11: PEAK2 809-821 proline-rich motif peptide (Ac-QPPPLPQKKIVSR-NH2) (peptide)
peptide: Ac-QPPPLPQKKIVSR-NH2
notes: human PEAK2 (SgK223, PRAG1) residues 809-821; source: synthetic peptide, bought: Mimotopes (95% purity)
[6]
  Kd: 2.4 µM
